Data published in PMC12737490, “Beta Toxins Isolated from the Scorpion Centruroides hirsutipalpus (Scorpiones; Buthidae) Affect the Function of Sodium Channels of Mammals” (Toxins, 2025).

B1: Chirp7 (peptide)
chain: KEGYLVNHSTGCKYECFKLGDNDYCLRECRQQYGKGAGGYCYAFGCWCTHLYEQAVVWPLPKKTCN-NH2
modifications: disulfide (positions not given here); also: four disulfide bridges, pairing not given here
B2: Chirp9 (peptide)
chain: KEGYIVDYHTGCKYTCAKLGDNDYCVRECRLRYYQSAHGYCYAFACWCTHLYEAAVVWPLPNKRCK-NH2
modifications: disulfide (positions not given here); also: four disulfide bridges, pairing not given here

What was measured:
[1] = test system: CD1 strain albino mice; assay: Toxicity and lethality tests in mice (intraperitoneal); format: in vivo, Mus musculus; design: key to Toxicity: Non-toxic: “non-toxic” when the mice exhibited normal physiological and behavioral patterns indistinguishable from the control group; Toxic: “toxic” when the animals developed signs of intoxication, such as excitability, excessive salivation, transient paralysis, breathing difficulty, diarrhea, impaired coordination or movement, or excessive tearing. These symptoms would appear after administration but fully resolve within 24 h without lasting effects; Lethal: “lethal” when the mice showed severe manifestations of intoxication, including progressive paralysis, marked respiratory distress, convulsions, or complete loss of mobility, leading to death during the observation period as a direct consequence of exposure; conditions: 20 g CD1 mice; for symptoms in affected animals / time to death after injection / lethality in murine models: 30 µg in 100 µL PBS; for lethality in murine models / Toxicity: monitored 24 h, in triplicate; for Toxicity: 30 µg of each fraction in 100 µL PBS
Description: Toxicity assays. Toxicity and lethality tests of FPLC and HPLC fractions containing the toxins were conducted on CD1 strain albino mice (Mus musculus) weighing 20 g. The mice received intraperitoneal injections of 30 µg of each fraction diluted in 100 µL of Phosphate-buffered saline (PBS), while control mice were injected with sterile water. The mice were monitored for 24 h. […] A treatment was categorized as “toxic” when the animals developed signs of intoxication, such as excitability, excessive salivation, transient paralysis, breathing difficulty, diarrhea, impaired coordination or movement, or excessive tearing. These symptoms would appear after administration but fully resolve within 24 h without lasting effects. […] The experiments were conducted in triplicate. The Bioethics Committee approved the Animal Welfare protocol used in this study (Project 413).

[2] = test system: hNav 1.1; assay: Patch-clamp macroscopic sodium currents, hNav1.1 in HEK cells; format: cell-based, human; conditions: 200 nM toxin, mean ± SE of 5 cells (3–5 cells); for I/Imax (residual peak current): Chirp9 value marked * (p<0.05 paired t-test); for slope of activation after toxin: control 7.7 ± 0.7 (Chirp7 cells), 7.2 ± 0.3 (Chirp9 cells); for V0.5 of activation after toxin: control -24.8 ± 0.8 (Chirp7 cells, toxin value marked *), -22.8 ± 0.3 (Chirp9 cells), * = p<0.05 paired t-test; for slope of inactivation after toxin / V0.5 of inactivation after toxin: steady-state inactivation; for slope of inactivation after toxin: control 6.7 ± 0.1 (Chirp7 cells), 6.8 ± 0.2 (Chirp9 cells); for V0.5 of inactivation after toxin: control -59.9 ± 0.2 (Chirp7 cells), -59 ± 0.2 (Chirp9 cells)
Description: (§1) Recordings of macroscopic currents from sodium channels. Human voltage-gated sodium channels (hNav 1.1, hNav 1.2 and hNa 1.6) were stably expressed in HEK cells. Cells were maintained at 37 ◦C with 5% CO2 in a humidified atmosphere. The growth medium consisted of high-glucose Dulbecco’s Modified Eagle Medium (DMEM, Sigma Aldrich, Naucalpan de Juarez, Estado de Mexico, Mexico), supplemented with 10% Fetal Bovine Serum (ByProductos, Guadalajara, Jalisco, Mexico) and 500 μg/mL of the antibiotic G418 (Sigma Aldrich, Naucalpan de Juarez, Estado de Mexico, Mexico). The extracellular solution was composed of (in mM): 130 NaCl, 5 KCl, 2 CaCl2, 2 MgCl2, 10 HEPES, and 5 glucose, with the pH adjusted to 7.3 using NaOH. The intracellular solution contained (in mM): 105 CsF, 27 CsCl, 5 NaCl, 2 MgCl2, 10 EGTA, and 10 HEPES, with the pH also adjusted to 7.3 with CsOH. Solutions were delivered to the patched cell via an active perfusion system connected to a variable-speed syringe pump (Model A-99, Razel Scientific Instruments, Fairfax, VT, USA), with a perfusion rate of approximately 1 μL/s. Patch pipettes were made from borosilicate glass capillaries (Warner Instruments, Hamden, CT, USA) using a vertical puller (Model P-30, Sutter Instrument, Novato, CA, USA). The pipettes were filled with the internal solution and had resistance ranging from 1.5 and 3 MΩ. Sodium currents were elicited by 100 ms depolarization ranging from −110 to 30 mV in 10 mV steps, followed by a fully activating step at −10 mV for 50 ms. To better appreciate the effects of scorpion β-sodium toxins, channels were primed by means of a 5 ms depolarization at 50 mV, applied 50 ms before the depolarization steps, as previously described in Cestele et al. 1998 [17]. To ensure complete recovery from inactivation, cells were maintained at −120 mV for 280 ms before each step, while holding potential was set at −100 mV. Currents were acquired using a MultiClamp 700A amplifier and a DigiData 1440A digitizer (Molecular Devices, CA, USA).
(§2) For the activation curve, conductance (G) was calculated from current (I) elicited during depolarization steps by means of the equation G = I/(Vm − ENa), where I is the current elicited at membrane potential Vm, and ENa is the reversal potential of Na^+ ions, calculated experimentally for each cell. Conductance was normalized to its maximal level and plotted against the corresponding membrane potential. For the steady-state inactivation curve, currents elicited at −10 mV (after preconditioning depolarization from −110 to 30 mV) were plotted against the preconditioning potentials. Data from activation and from steady-state inactivation were fitted using a Boltzmann equation: y = A2 + (A1 − A2)/(1 + exp((x − x0)/dx)) where A1 is the initial value, A2 is the final value, x0 is the potential of half-activation (or half-inactivation) and dx is the slope. […]
(§3) Figure S1. Recordings of macroscopic currents from sodium channels. Sodium currents in B) were elicited by the stimulation protocol depicted in A): currents were elicited by 100 ms depolarization ranging from -110 to 30 mV in 10 mV steps, followed by a fully activating step at -10 mV for 50 ms.
(§4) A 5 ms depolarization at 50 mV was applied 50 ms before the depolarization steps to primed the channels. Peak currents obtained during the step depolarization from -110 to 30 mV (C and D, black circle in control and open circle after toxin application) were used to calculate the conductance and construct the activation curves. Currents recorded during the step at -10 mV (C and D, black square in control and open square for the toxin), were used to construct the inactivation curves. […]

[3] = test system: hNav 1.2; assay: Patch-clamp macroscopic sodium currents, hNav1.2 in HEK cells; format: cell-based, human; conditions: 200 nM toxin; for I/Imax (residual peak current) / slope of activation after toxin / V0.5 of activation after toxin / slope of inactivation after toxin / V0.5 of inactivation after toxin: mean ± SE of 5 cells (3–5 cells); for slope of activation after toxin: control 5.4± 0.3 (Chirp7 cells), 7.6 ± 0.4 (Chirp9 cells); for slope of activation after toxin / slope of inactivation after toxin / V0.5 of inactivation after toxin: Chirp9 value marked * (p<0.05); for V0.5 of activation after toxin: control -21.1 ± 0.4 (Chirp7 cells), -26.5 ± 0.5 (Chirp9 cells); for slope of inactivation after toxin / V0.5 of inactivation after toxin: steady-state inactivation; for slope of inactivation after toxin: control 6 ± 0.2 (Chirp7 cells), 5.6 ± 0.2 (Chirp9 cells); for V0.5 of inactivation after toxin: control -56.1 ± 0.2 (Chirp7 cells), -55.5 ± 0.3 (Chirp9 cells)
Description: as §1, §2, §3, §4

Row | Molecule | symptoms in affected animals [1] | time to death after injection [1] | lethality in murine models [1] | lethality in murine models ([1]; listed as FII.7) | Toxicity [1] | I/Imax (residual peak current) [2] | slope of activation after toxin [2] | V0.5 of activation after toxin [2] [mV] | slope of inactivation after toxin [2] | V0.5 of inactivation after toxin [2] [mV] | I/Imax (residual peak current) [3] | slope of activation after toxin [3] | V0.5 of activation after toxin [3] [mV] | slope of inactivation after toxin [3] | V0.5 of inactivation after toxin [3] [mV] | lethality in murine models ([1]; listed as FII.9) | effect on inactivation [3]
1 | B1 | hyperexcitability, tremors, piloerection, hypersalivation, transient paralysis, dyspnea, motor incoordination, severe respiratory distress, and, ultimately, death | approximately 20 min | pronounced lethality | particularly lethal effects | Lethal | 0.98±0.02 | 6.9 ± 0.5 | -26.9 ± 0.6 | 6.4 ± 0.1 | -60.9 ± 0.2 | 1 ± 0.02 | 5.9 ± 0.3 | -22 ± 0.4 | 6.2 ± 0.2 | -56.9 ± 0.2 |  | 
2 | B2 | hyperexcitability, tremors, piloerection, hypersalivation, transient paralysis, dyspnea, motor incoordination, severe respiratory distress, and, ultimately, death | approximately 20 min | pronounced lethality |  | Lethal | 0.94 ± 0.02 | 8.2 ± 0.2 | -23.6 ± 0.2 | 7.3 ± 0.2 | -60.1 ± 0.2 | 0.85 ± 0.07 | 10.8 ± 0.4 | -26.8 ± 0.5 | 7.6 ± 0.4 | -61.8 ± 0.4 | particularly lethal effects | shifted inactivation to more negative potential
